The source of these data is PMC6651773, “2-Ketogluconate Kinase from Cupriavidus necator H16: Purification, Characterization, and Exploration of Its Substrate Specificity” (Molecules, 2019).

Experiment in all cases: purified protein
Holding throughout (assay type): biochemical, Cupriavidus necator

Substrate in series [1]: O=C(O)C(=O)C[C@@H](O)[C@H](O)CO
The conditions noted are these: ATP 1.25 mM, Mg2+ 5 mM, Tris-HCl pH 8.0, KCl 50 mM, 25 °C.

Substrate in series [2]: O=C(O)C(=O)[C@H](O)[C@@H](O)[C@H](O)CO
The conditions noted are these: ATP 1.25 mM, Mg2+ 5 mM, Tris-HCl pH 8.0, KCl 50 mM, 25 °C.

Substrate in series [3]: Nc1ncnc2c1ncn2[C@@H]1O[C@H](COP(=O)(O)OP(=O)(O)OP(=O)(O)O)[C@@H](O)[C@H]1O
The conditions noted are these: KG 1.25 mM, Mg2+ 5 mM, Tris-HCl pH 8.0, KCl 50 mM, 25 °C.

Substrate in series [4]: O=C(O)C(=O)[C@@H](O)[C@H](O)[C@H](O)CO
The conditions noted are these: ATP 1.25 mM, Mg2+ 5 mM, Tris-HCl pH 8.0, KCl 50 mM, 25 °C, sigmoid, Hill n = 1.4.

Substrate in series [5]: O=C(O)C(=O)C[C@H](O)[C@H](O)CO
The conditions noted are these: ATP 1.25 mM, Mg2+ 5 mM, Tris-HCl pH 8.0, KCl 50 mM, 25 °C.

In general, Km refers to the concentration of substrate that gives half-maximal velocity. In general, Vmax refers to the top rate of the reaction or transport when substrate is in excess. One may read the kcat as the maximal rate divided by the concentration of active sites. By kcat/Km is commonly meant the turnover number divided by the Michaelis constant.

B1: KGUKCnec (2-ketogluconate kinase from C. necator H16) (Cupriavidus necator H16) (protein)
chain: MSTDLDVVTLGEAMLMLVAGEAGPLEGAQTFHKRTAGAETNVAIGLSRLGLKVGWASRLGDDSMARYLLGEMQREGVDCSQVVCEPGERTGFQFKGRVDDGSDPPVEYHRRGSAASRMNPEHLDGRWLRRSRHLHVTGVFPALAAGTQAATRQAIATMQAAGRTISFDPNLRPTLWASPELMRETLNDLAQQCDWVLPGIEEGRFLTGHAEPERIAAFYRARGARLVVVKLGADGAYFDGEAGTGHVEAFSVEHVVDTVGAGDGFAVGVISALLEGRPVRDAVRRGAWIGARAVQVRGDTEGLPTHAQLAAASL
notes: full-length ORF (PCR primers kguK-NdeI 5' […] 3' / kguK-BamHI 5' […] 3'
With B1, in series [1], the Km stood at 25000 ± 4000 µM, the maximum rate (Vmax) amounted to 3.7 µmol/min/mg, the kcat was found to be 2.1 ± 0.2 s⁻¹ and the kcat/Km came out at 83 ± 20 M⁻¹ s⁻¹. Further, in series [2], the Michaelis-Menten constant (Km) is 4000 ± 1000 µM, the Vmax is 1.9 µmol/min/mg, the turnover number (kcat) came to 1.1 ± 0.1 s⁻¹ and the kcat/Km was 246 ± 70 M⁻¹ s⁻¹. In series [3], the Michaelis constant (Km) stood at 73 ± 2 µM, the Vmax is 10.2 µmol/min/mg, the catalytic constant (kcat) was 5.71 ± 0.05 s⁻¹ and the kcat/Km was determined as 78200 ± 2500 M⁻¹ s⁻¹. Moreover, in series [4], the K0.5 was 0.35 ± 0.03 mM, the maximum rate (Vmax) was 10.4 µmol/min/mg, the turnover number (kcat) is 5.8 ± 0.2 s⁻¹ and the kcat/Km turned out to be 16800 ± 1300 M⁻¹ s⁻¹. Also, in series [5], the Km was determined as 1400 ± 200 µM, the Vmax came to 18.2 µmol/min/mg, the turnover number (kcat) stood at 10.2 ± 0.5 s⁻¹ and the catalytic efficiency (kcat/Km) is 7370 ± 970 M⁻¹ s⁻¹.
